Residue numbers refer to the chain shown, from its start. Blank lines part the entries; values can stand above or below the binder they belong to.
What was measured:
[1] = target: T1, mouse PD-1 on transfected 293F cells (mouse, UniProt Q02242 25-288); assay: flow cytometry on 293F cells expressing mouse PD-1, quantitative beads
T1 construct: whole, on cells; also called cell surface mouse PD-1
T1 sequence (looked up): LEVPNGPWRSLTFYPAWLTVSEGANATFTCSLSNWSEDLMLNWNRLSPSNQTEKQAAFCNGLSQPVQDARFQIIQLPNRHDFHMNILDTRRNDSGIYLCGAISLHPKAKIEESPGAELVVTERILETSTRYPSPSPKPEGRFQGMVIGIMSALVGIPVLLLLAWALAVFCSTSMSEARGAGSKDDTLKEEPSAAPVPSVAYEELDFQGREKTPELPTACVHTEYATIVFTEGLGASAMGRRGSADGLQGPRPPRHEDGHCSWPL
Description: (§1) Testing antibodies were 1:2 serially diluted in wash buffer (1×PBS/1% BSA) and incubated with cells at 4° C. for 1 h.

[2] = target: T2, human PD-1 on transfected cells (human, UniProt Q15116 25-288); assay: FACS competition on CHO-S cells expressing human PD-1 against biotinylated WBP305BMK1 at 1 µg/ml
T2 construct: also called CHO-S cells expressing human PD-1; human PD-1 transfected CHO-S cells
Description: (§2) The cells were washed and the second antibody Streptavidin-PE were added and incubated for 30 min at 4° C. The cells were then washed once and resuspended in 1×PBS/1% BSA, and analyzed by flow cytometery (BD).

[3] = target: T2, human PD-1 on transfected cells; assay: flow cytometry on CHO-S cells expressing human PD-1, quantitative beads
Description: as §1

[4] = target: T1, mouse PD-1 on transfected 293F cells; assay: FACS, mouse PD-1 transfected 293F cells
[5] = target: T2, human PD-1 on transfected cells; assay: FACS blocking assay: mouse Fc fusion-human PD-L1 binding to human PD-1 transfected CHO-S cells
[6] = target: cynomolgus PD-1 antigen protein of the affinity-maturation screen (cynomolgus); assay: capture ELISA, second-round affinity-maturation screen (scFv format likely); unit not given
[7] = target: human PD-1 antigen protein of the affinity-maturation screen (human, UniProt Q15116 25-167, limits assumed, biotinylated); assay: as above
[8] = target: T3, mouse PD-1 antigen protein of the affinity-maturation screen (mouse, UniProt Q02242 25-167, limits assumed, biotinylated); assay: as above
T3 sequence (looked up): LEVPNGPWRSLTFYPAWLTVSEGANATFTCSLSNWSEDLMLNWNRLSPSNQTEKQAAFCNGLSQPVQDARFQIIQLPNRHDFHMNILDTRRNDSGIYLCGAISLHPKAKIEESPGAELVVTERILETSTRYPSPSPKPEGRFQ

[9] = target: T2, human PD-1 on transfected cells; assay: FACS, human PD-1 transfected CHO-S cells
[10] = target: T2, human PD-1 on transfected cells; assay: FACS competition on CHO-S cells expressing human PD-1 against biotinylated Keytruda at 1 µg/ml
Description: as §2

[11] = target: T1, mouse PD-1 on transfected 293F cells; assay: FACS blocking assay: mouse Fc fusion-mouse PD-L1 binding to mouse PD-1 transfected 293F cells
[12] = target: cynomolgus PD-1 (Sino Biological), coated on plates (cynomolgus, UniProt B0LAJ3 25-170); assay: ELISA, plates coated with cynomolgus PD-1 at 1 µg/ml
Description: (§3) For ELISA, plates (Nunc) were coated with human, cynomolgus or mouse PD-1 (Sino Biological) at 1 μg/ml overnight at 4° C. After blocking and washing, antibodies were serially diluted in blocking buffer and added to the plates and incubated at room temperature for 1 h. The plates were then washed and subsequently incubated with secondary antibody goat anti human IgG HRP (Bethyl) for 1 h. After washing, TMB substrate was added and the reaction was stopped by 2 M HCl. The absorbance at 450 nm was read using a microplate reader (Molecular Device).

[13] = target: T4, human PD-1 (Sino Biological), coated on plates (human, UniProt Q15116 25-167); assay: ELISA, plates coated with human PD-1 at 1 µg/ml
T4 construct: whole entry named
Description: as §3

[14] = target: T5, human CTLA-4 on a constructed cell line (human, UniProt P16410 36-223); assay: FACS, CTLA-4.293F cells, one antibody concentration (not given)
T5 construct: whole, on cells
Description: (§4) Constructed cell lines that respectively express human PD-1, CD28, CTLA-4 or ICOS were transferred in to 96-well U-bottom plates (BD) at a density of 2×10⁵ cells/well. Testing antibodies were diluted in wash buffer (1×PBS/1% BSA) and incubated with cells at 4° C. for 1 h. After washing, the secondary antibody goat anti-human IgG Fc FITC (Jackson ImmunoResearch Lab) was added and incubated at 4° C. in the dark for 1 h. The cells were then washed once and resuspended in 1×PBS/1% BSA, and analyzed by flow cytometery (BD) and FlowJo software.

mPD-1.His = target: T6, mPD-1.His (mouse, UniProt Q02242 25-167, limits assumed); assay: SPR (ProteOn XPR36), antibody captured on Protein A, PD-1.His as analyte, 1:1 fit
T6 construct: Soluble analyte, probably the extracellular domain; also called mouse PD-1 (SPR analyte)
T6 sequence (looked up): T3 sequence (looked up)
Description: (§5) Antibodies were characterized for affinity and binding kinetics to PD-1 by SPR assay using ProteOn XPR36 (Bio-Rad). Protein A protein (Sigma) was immobilized to a GLM sensor chip (Bio-Rad) through amine coupling. Purified antibodies were flowed over the sensor chip and captured by the Protein A. The chip was rotated […] and washed with running buffer (1×PBS/0.01% Tween20, Bio-Rad) until the baseline was stable. Seven concentrations of human PD-1 and running buffer were flowed through the sensor chip at a flow rate of 30 μL/min for an association phase of 180 s, followed by 300s dissociation. After regeneration, seven concentration of mouse PD-1 and running buffer were flowed through the sensor chip at a flow rate of 30 μL/min for an association phase of 180 s, followed by 300 s dissociation. The chip was regenerated with pH 1.5 H₃PO₄ after each run. The association and dissociation curve was fit by 1:1 Langmuir binding model using ProteOn software.

hPD-1.His = target: T7, hPD-1.His (human, UniProt Q15116 25-170); assay: as above
T7 construct: the SPR text says only human PD-1; also called human PD-1 (SPR analyte)
Description: as §5

[15] = target: T8, mouse PD-1 (Sino Biological), coated on plates (mouse, UniProt Q02242 25-167); assay: ELISA, plates coated with mouse PD-1 at 1 µg/ml
T8 sequence (looked up): T3 sequence (looked up)
Description: as §3

[16] = target: T9, human CD28 on a constructed cell line (human, UniProt P10747 19-220); assay: FACS, CD28.CHO-K1 cells, one antibody concentration (not given)
T9 construct: whole, on cells
Description: as §4

T7 sequence (Q15116 25-170): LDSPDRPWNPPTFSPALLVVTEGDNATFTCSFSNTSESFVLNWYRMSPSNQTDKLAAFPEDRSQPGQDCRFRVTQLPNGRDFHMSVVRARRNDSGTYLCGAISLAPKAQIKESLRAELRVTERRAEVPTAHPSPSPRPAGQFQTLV
T2 sequence (Q15116 25-288 limits assumed): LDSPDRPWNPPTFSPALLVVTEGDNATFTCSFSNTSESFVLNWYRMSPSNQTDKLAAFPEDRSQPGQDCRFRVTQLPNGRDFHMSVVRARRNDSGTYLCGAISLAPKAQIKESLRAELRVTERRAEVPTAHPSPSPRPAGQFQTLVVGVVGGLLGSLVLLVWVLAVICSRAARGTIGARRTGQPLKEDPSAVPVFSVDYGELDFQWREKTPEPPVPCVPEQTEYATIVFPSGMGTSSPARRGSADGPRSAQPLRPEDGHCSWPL
cynomolgus PD-1 (Sino Biological), coated on plates, sequence (B0LAJ3 entry or part of it limits assumed): as the sequence (Q15116 25-170) above, with D2E, P10A, V19L, T35A, Q75R, T144A counted along it
T4 sequence (Q15116 25-167 limits assumed): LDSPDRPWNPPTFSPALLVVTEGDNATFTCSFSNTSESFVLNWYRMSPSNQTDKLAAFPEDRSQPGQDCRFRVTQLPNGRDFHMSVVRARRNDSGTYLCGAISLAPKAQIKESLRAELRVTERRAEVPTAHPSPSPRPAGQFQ
human PD-1 antigen protein of the affinity-maturation screen, sequence (Q15116 25-167 limits assumed): as above
T5 sequence (P16410 36-223): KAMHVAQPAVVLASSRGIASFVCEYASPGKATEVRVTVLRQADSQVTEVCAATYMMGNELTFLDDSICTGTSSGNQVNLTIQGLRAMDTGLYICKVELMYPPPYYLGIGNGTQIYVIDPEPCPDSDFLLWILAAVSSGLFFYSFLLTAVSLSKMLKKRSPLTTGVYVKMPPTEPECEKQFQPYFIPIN

Kd [1]: 17.4 nM
IC50 [2]: 6.55 nM
Kd [3]: 0.264 nM
EC50 [4]: 11.8 nM
IC50 [5]: 2.2 nM
Bmax [6]: 1.67
Bmax [7]: 3.17
Bmax [8]: 0.416
EC50 [9]: 2.36 nM
IC50 [10]: 11.1 nM
IC50 [11]: 16.7 nM
EC50 [12]: 0.12 nM
EC50 [13]: 0.12 nM
binding result [14]: no binding
Kd (mPD-1.His): 6.92 nM
koff (mPD-1.His): 0.00153 s⁻¹
kon (mPD-1.His): 221000 M⁻¹ s⁻¹
Kd (hPD-1.His): 5.64 nM
koff (hPD-1.His): 0.00414 s⁻¹
kon (hPD-1.His): 733000 M⁻¹ s⁻¹
EC50 [15]: 0.41 nM
binding result [16]: no binding
B1: 2C2 (antibody, human IgG4, V domains shown)
VH: QVQLVQSGAEVKKPGSSVKVSCKASGFTFTTYYISWVRQAPGQGLEYLGYINMGSGGTNYNEKFKGRVTITADKSTSTAYMELSSLRSEDTAVYYCAIIGYFDYWGQGTMVTVSS
VL: DVVMTQSPLSLPVTLGQPASISCRSSQSLLDSDGATYLYWFQQRPGQSPRRLIYLVSTLGSGVPDRFSGSGSGTDFTLKISRVEAEDVGVYYCMQLTHWPYTFGQGTKLEIK

Kd [1]: 35.1 nM
IC50 [2]: 8.93 nM
Kd [3]: 0.38 nM
EC50 [4]: 14.8 nM
IC50 [5]: 2.23 nM
Bmax [6]: 1.72
Bmax [7]: 3.37
Bmax [8]: 0.479
EC50 [9]: 2.78 nM
IC50 [10]: 17.2 nM
IC50 [11]: 18.7 nM
EC50 [12]: 0.36 nM
EC50 [13]: 0.21 nM
binding result [14]: no binding
Kd (mPD-1.His): 3.89 nM
koff (mPD-1.His): 0.0013 s⁻¹
kon (mPD-1.His): 334000 M⁻¹ s⁻¹
Kd (hPD-1.His): 7.09 nM
koff (hPD-1.His): 0.0047 s⁻¹
kon (hPD-1.His): 663000 M⁻¹ s⁻¹
EC50 [15]: 0.2 nM
binding result [16]: no binding
B2: 2G4 (antibody, human IgG4, V domains shown)
VH: B1 VH
VL: B1 VL with A35S

Reference: patent US20230014722A1 (CSTONE PHARMACEUTICALS, published 2023)
